How the values were obtained:
P27838 [1] = assay: dynamic light scattering; CyaY 2 mg/ml (0.16 mM) with ammonium iron (II) sulfate, Fe2+:protein 1:1, 2:1, 4:1, 6:1, 8:1, 10:1; 1 h at 30°C; volume distribution; settings: other: dynamic light scattering
P27838 [2] = assay: dynamic light scattering; CyaY with Fe2+ 6:1 (DFO also 8:1) for 15 min, then chelator (deferiprone, DFO or BIPY) at 3 times the amount of iron; settings: other: dynamic light scattering

B1: E. coli frataxin CyaY (protein)
chain: MNDSEFHRLADQLWLTIEERLDDWDGDSDIDCEINGGVLTITFENGSKIIINRQEPLHQVWLATKQGGYHFDLKGDEWICDRSGETFWDLLEQAATQQAGETVSFR
For B1, the % of particles with hydrodynamic radius 3.0–5.9 nm (oligomers), with iron (Fe2+ 6:1) (P27838 [1]) was 77%, the “% of particles with hydrodynamic radius 6–8.5 nm (oligomers), with iron (Fe2+ 8:1)” value (P27838 [1]) was “about 74% of the particles having a hydrodynamic radius in the range of 6–8.5 nm” and the % of particles with hydrodynamic radius 8.5–14 nm (oligomers), with iron (Fe2+ 6:1) (P27838 [1]) was 23%. For the same protein, the “% of particles with hydrodynamic radius 8.5–14 nm (oligomers), with iron (Fe2+ 8:1)” value (P27838 [1]) was “(25% and 1%, respectively, not shown)”, the “% of particles with hydrodynamic radius 8.5–14 nm (oligomers), with iron (Fe2+ 10:1)” value (P27838 [1]) was 8.5–14 nm (83%) and the “% of particles with hydrodynamic radius 26–40 nm (oligomers), with iron (Fe2+ 10:1)” value (P27838 [1]) was 26–40 nm (17%). For the same protein, the “% of particles with hydrodynamic radius >100 nm, with iron (Fe2+ 8:1)” value (P27838 [1]) was “(25% and 1%, respectively, not shown)”, the % of particles in the monomer range (hydrodynamic radius 1.6–2.1 nm), with iron (Fe2+ 6:1) and BIPY (P27838 [2]) was 76% and the % of particles in the monomer range (hydrodynamic radius 1.6–2.1 nm), with iron (Fe2+ 6:1) and DFO (P27838 [2]) was 93%. It also gave a % of particles with hydrodynamic radius 2.2–2.9 nm (smaller oligomers), with iron (Fe2+ 6:1) and deferiprone (P27838 [2]) of 95%, a % of particles with hydrodynamic radius 6.0–8.5 nm (oligomers), with iron (Fe2+ 6:1) and BIPY (P27838 [2]) of 24% and a % of particles with hydrodynamic radius 6.0–8.5 nm (oligomers), with iron (Fe2+ 6:1) and DFO (P27838 [2]) of 7%. The % of particles with hydrodynamic radius 8.5–14 nm (oligomers), with iron (Fe2+ 6:1) and deferiprone (P27838 [2]) was 5% and the “% of particles with hydrodynamic radius 8.5–14 nm (oligomers), with iron (Fe2+ 8:1) and DFO” value (P27838 [2]) was “(8.5–14 nm, 100%, Fig 3B)”.
